Data as given in the DeepSol protein solubility set.

assay: soluble on expression in E. coli; label from the status in PepcDB or PDB records

Sequence | soluble on expression in E. coli
MGSDKIHHHHHHMRGKILIFLHAHLPYVHHPEYDHFLEERWLFEAITETYIPLLMMFDEIEDFRLTMSITPPLMEMLSSRDLQEKYERHMEKLIELANKEVERTKKEHPLKHKMAKFYREHFEKILNVFRSYDGNILEGFKKYQETGKLEIVTCNATHAFLPLYQMYPEVVNAQITVGVKNYAKHMTLHPRGIWLAECGYYQGLDLYLAQNNVEYFFVDSHAFWFADEQPRYGVYRPIMTPSGVFAFARDPESSEQVWSAAVGYPGDPRYREFYRDIGFDREMEYIKDYIDPSGVRINTGIKYHRITSKSLDASQKEYYDIDLAMEAVEEHARDFLHKKESQARRLMDIMGVEPVIVAPFDAELFGHWWFEGVFFLKRFFELVNESKDLKLVTASEVIDTLEEVQIATPADSSWGAGGYYETWLNGTNDWIYRHLHEMIERMIDLSKKYYNSSDPLVERVLNQMLRELFLAQSSDWAFIMTTRTSVQYAENRTKLHIKRFLNLYDQLVSGRIDEEMLRYYEWTDAIFPEINFRVMARDVI | not soluble
MQKHWWHKATVYQIYPKSFMDTNGDGIGDLKGITSKLDYLQKLGVMAIWLSPVYDSPMDDNGYDIANYEAIADIFGNMADMDNLLTQAKMRGIKIIMDLVVNHTSDEHAWFIEAREHPDSSERDYYIWCDQPNDLESIFGGSAWQYDDKSDQYYLHFFSKKQPDLNWENANLRQKIYDMMNFWIDKGIGGFRMDVIDMIGKIPAQHIVSNGPKLHAYLKEMNAASFGQHDLLTVGETWGATPEIAKQYSNPVNHELSMVFQFEHIGLQHKPEAPKWDYVKELNVPALKTIFNKWQTELELGQGWNSLFWNNHDLPRVLSIWGNTGKYREKSAKALAILLHLMRGTPYIYQGEEIGMTNYPFKDLNELDDIESLNYAKEAFTNGKSMETIMDSIRMIGRDNARTPMQWDASQNAGFSTADKTWLPVNPNYKDINVQAALKNSNSIFYTYQQLIQLRKENDWLVDADFELLPTADKVFAYLRKVREERYLIVVNVSDQEEVLEIDVDKQETLISNTNESAALANHKLQPWDAFCIKILEHHHHHH | soluble
MADRKLVVVFGATGAQGGSVARALLEDGTFRIRVVTRNPEQRAAKELKQQGAEVVRGDQDDAASMELALAGAHATFIVTNYWETCSQDREVQQPHQWDQVFKQGKLLADLAKRLGLHYVVYSGLENIRKLTAGKLAAGHFDGKGEVEEYFRDIGVPMTSVRLPCYFENLLSYFLPQKAADGKSFLLDLPMGDVPMDGMSVSDLGPVVLSLLKKPEEYVGQNIGLSTCRHTAEEYAALLSKHTGKAVHHAKTTPEDYEKLGFQGAQDLANMFRFYTLKPDRNIHLTLRLNPKAQTLDQWLEQHKGDFAQL | soluble
MAQVRKAHPKDLAAIARLSHQTLFLGREGPKVFPSETLWGALFVAPYLEAGCCNLVAEEEGRVVGYILGACADRPLALAFAKRLLWALPRLLLGRFGPPLPHLRYLLRLLRYPGPKAPKDRYPAHLHIAVDPEAQGHGVGKALLAAFLKCLREKGVPGVQLATTRANRAARGLYRAMGFRVYAKRASPFWAPYLGRPLIHEVWVRDLG | soluble
MSSLAKLGYFFDEKGVLKTEKDKKPFKFTTQEDYEELGEAVDLEVYELLETRCGLKRKALKLPGKTDEDEDLSFIFVSKNFKKAANLLVLIHGSGVVRAGQWARRLIINDNLECGTQIPYIERAIENGWGVVVMNTNLNESKDQDLKYSRTPVEHAETVWIACIEPSNAKSIYVVAHSRGGYDTASVLKKFGGDDRISKICLTDSPWFEFPKSCAQRARPLFVVNFLAHGALNSPSYKVREYREGNVAELWAGTQIHEWSSHCAIDAVFHILETEMTPSNYAEVMEEAKKLVVKSENSKESDDEAPKSKKICV | not soluble
MGHHHHHHSHMNKILIAAASSGTGKTTVTLGIMHALKKRGLRVQPFKVGPDYIDTNYHQAITGVASINLDSFLIDDDAMLAALFEKHGQSADISVIEGVMGLFDGLGIDRDNSSTSFIAKCTKTPVILVVDGKAISTSAAAIVDGFNRFDPELTIAGVIINRVASENHFSLIKGAIERYTDVPVLGYLPKNAAVALPERHLGLVPKEEMTELETKWEVLGDLIAEHVDLDRLLAISKTG | not soluble
MGSDKIHHHHHHMAERLGISIRSIYRDIDSLRAQGVRIDASAGLGFQLKEDILLPPVTFNENEAEALFLALEWLKDVPDQAMKSAAVSIYSKLYAVLPEHRKYLIDDMTLGVTHYWHPVDEALVEQVRLAIRKQVKIKVDYCDEHKRISQRSLWPFALGYLHDKVVLAAWCELRQAFRHFRIDRIHDLQMSEEIYPEFKKHLFQRWWKQEMQRTTDKN | not soluble
SEAVLTEELDEEEQLLRRHRKEKKELQAKIQGMKNAVPKNDKKRRKQLTEDVAKLEKEMEQKHREELEQLKLTTKENKIDSVAVNISNLVLENQPPRISKAQKRREKKAALEKEREERIAEAEIENLTGARHMESEKLAQILAARQLEIKQIPSDGHCMYKAIEDQLKEKDCALTVVALRSQTAEYMQSHVEDFLPFLTNPNTGDMYTPEEFQKYCEDIVNTAAWGGQLELRALSHILQTPIEIIQADSPPIIVGEEYSKKPLILVYMRHAYGLGEHYNSVTRLVNIVTENCS | soluble
MKRRESSPLISTILGIRYGRCVMGNFSIVIPTYNERDNIVKLVEEINRIVPYNSRILIVDDNSPDGTALILQELNIHNLTVLIRHNERGLGSALRYGISKAIELESDFIVTMDADFSHNPKYLPEMMKIALNENCDLVIGSRYVIGGGIENWSLSRRIISKGANYLFKLVSHSPIMDNTSNYRIYSRRAALLALECDTTNGYEFQICSIFKIIRNNLKIKEYPIIFVDRKTGKSKLNLKEILNWFLYIIRLSLSFLEHHHHHH | not soluble
MVYYIYHSAFVIEVEKSILIFDFYKFPSNKKKEKEEFFNRFIKRIDKKVYIFSTHSHSDHFNKEILTWLEMNENIKYILSDDIRIYKHKNFYFTKEGDSFELDNLKISTFGSTDLGSSFYVNTENKNIFHSGDLHFWHWEDDTPEEEKTMYDAYMVQLEKIKKLDRIDIAFVPVDPRLGVNTLEGVELFYKILKPKIIIPMHFSDDYSQMKNFIEKFKYNDDVKIIEIKDSMEKVLELEHHHHHH | not soluble
MACFLARFQFISPDSPATKAVTLQIKRSGQDMYACITGHSYSAPVFTVECKLKPDAEWVRDCMASFKEQMEAEGFLLNEGTSESTLPAQPAKKADLTLHDISAFFHLPVKAAASCLGVSQTYLKILCRRLGIDRWPYRKVASVKKHM | not soluble
MQCCVQLVPFWDTSGVSTMFDYQVSKHPHFDEACRAFALRHNLVQLAERAGMNVQILRNKLNPAQPHLLTAPEIWLLTDLTEDSTLVDGFLAQIHCLPCVPINEVAKEKLPHYVMSATAEIGRVAAGAVSGDVKTSAGRRDAISSINSVTRLMALAAVSLQARLQANPAMASAVDTVTGLGASFGLL | not soluble
GPGSMVGPYNSKAGVVLVCDIFGLLPNSKRFADVLAEHGFLVAMPDFFGPLAWPESEWPADFQSMRWLQYVEKITQFDAFVPQMEAAIAVLRQMGCAKVGAIGMCWGAALPFMMAAQGKIDAAAAAHPSFFTADAVRAAKTPVLVLPSKDEPPMDDVEAAVNSHPMEPHVHKRFDALHHGFFGARYNPDAYTAEELKDVETARQLVLDFFKKSLH | not soluble
MKFTFEVPAPLQQVAPISYYESLLSNYRYRDISFLEMSTTGKILGECTIGENNYTIQGSECDGLISSIEILDVKEADSFLDIPLSLPNRKFVKALKDLGIEFDHDRDGVTIHHENRVIALSYQFGKVAAICWDSE | not soluble
MAHHHHHHGMTRTRSGSLAAGGLNWASLPLKLFAGGNAKFWHPADIDFTRDRADWEKLSDDERDYATRLCTQFIAGEEAVTEDIQPFMSAMRAEGRLADEMYLTQFAFEEAKHTQVFRMWLDAVGISEDLHRYLDDLPAYRQIFYAELPECLNALSADPSPAAQVRASVTYNHIVEGMLALTGYYAWHKICVERAILPGMQELVRRIGDDERRHMAWGTFTCRRHVAADDANWTVFETRMNELIPLALRLIEEGFALYGDQPPFDLSKDDFLQYSTDKGMRRFGTISNARGRPVAEIDVDYSPAQLEDTFADEDRRTLAAASA | soluble
MVDSYDDSLDGEKSKTQVKRELHALVDLGERLTTLKADVLAKLPLTDALRKALAEAPKHTANIARKRHILFIGKLMRDQDQEAILVLLDQLDASTRQYNERFHNLERWRDRLIAGDDADLEKFVIEYPDADRQQLRSLIRQAQHEVARNKPPATSRKIFKYIRELDELQRGLR | not soluble
GPGSHQIRLLPLTDGFGDASMAGGTSAKIVSPMPGKVSKFLVNSGDFVEKGQALMIVEAMKMEHPVKALQDGQVSFLVKEGEVVGSDHVLATVVQKE | soluble
VVVEDSGASFGESLLDTTSEPGKILVKRISGGSGITVTDYGDQVEIEASVTDALSLMYSTSTGGPASIAANALTDFDLSGALTVNSVGTGLTKSAAGIQLAAGKSGLYQITMTVKNNTVTTGNYLLRVKYGSSDFVVACPASSLTAGGTISLLIYCNVLGVVSLDVLKFSLCNDGAALSNYIINITAAKIN | soluble
MNILYDERLDGPLPQVDKDGLLAELRLRLPDLELLHAAEDLRPYECDGLSAYRCTPLLVALPERIEQVQGLLALCHRLKVPVVARGAGTGLSGGALPLENGVLLVMARFRRILEIDPLGRFARVQPGVRNLAISQAAAPHGLYYAPDPSSQIACSIGGNVAENAGGVHCLKYGLTVHNLLQVDIVTLEGERLSLGSSALDSAGFDLLALFTGSEGLLGVVVEVTVRLLPRPPVAKVLLASFDDVESAGRAVADLIGAGIVPAGLEMMDNLSIRAAEDFIHAGYPVDAAAILLCELDGVEADVHEDCERVRELFEAAGATSVRQAQDEAERQRFWAGRKNAFPAVGRISPDYYCMDGSIPRRELPRVLHGIAELSREYGLRVANVFHAGDGNMHPLILFDANLAGELERAEALGGRILELCVAVGGSITGEHGVGREKINQMCAQFNADELTLFHAVKAAFDPAGLLNPGKNVPTLHRCAEFGAMHVHHGRLPFPELERF | not soluble
MQNYSVSVTSDRPAPFQQITIPLADGTVLHARLWLPQTPLADRVPLVLEWIPYRQSDGTALADSMMHGYFAEQGIAAARVDIRGSGNSDGLLHDEYLKQEQDDACEVIAWFARQDWCNGNVGLIGISWGGFAGLQIAARRPPALKCIITACSTDNRYTDDVHYMGGALLSDGMQWGSGLFAQLGRPADPKHVGDRWREMWMNRLEGIKEPPLATWMQHTTYDDFWKHGSVCEDYDEIQCAVWAVGGWVDGYTDPILRLMEKLSVPKKALIGPWTHMYPTWGQPGPQIGFLQEAMRWWRHWLMDEDTGIMDEPQLTLWLGKDPKPDTRAPDIGGRWIGLP | not soluble
MGSDKIHHHHHHMESTMKLATAPDAWGVWYADDPRQTPWERYLDEVRDSGFTATETGPWGYLPTDPSHLTDALGSRGLSVCGSALVHLLAPADAMETLRPRLEQTCGLLKAMKAEWVVLMDDSDLPLPGQSRALSPHDWASMIRNIKDAARYVTEEHGLSFVFHPHVGSGVETEAEVIRLLEETSEDSVGLCFDFGHHAYTGADAVAFMKRYADRIPYYHFKNVDPVLLAHIRQNNINFIEGFQSGVMCELDKGMVDFAEVRDFLATRGFDGYAVYEQDMYPCPPEKPFPIACHNRQVLRELGI | not soluble
MVNEYKKILLLKGFELMDDYHFTSIKSLLAYDLGLTTKMQEEYNRIKITDLMEKKFQGVACLDKLIELAKDMPSLKNLVNNLRKEKSKVAKKIKTQEKAPVKKINQEEVGLAAPAPTARNKLTSEARGRIPVAQKRKTPNKEKTEAKRNKVSQEQSKPPGPSGASTSAAVDHPPLPQTSSSTPSNTSFTPNQETQAQRQVDARRNVPQNDPVTVVVLKATAPFKYESPENGKSTMFHATVASKTQYFHVKVFDINLKEKFVRKKVITISDYSECKGVMEIKEASSVSDFNQNFEVPNRIIEIANKTPKISQLYKQASGTMVYGLFMLQKKSVHKKNTIYEIQDNTGSMDVVGSGKWHNIKCEKGDKLRLFCLQLRTVDRKLKLVCGSHSFIKVIKAKKNKEGPMNVN | soluble
